Laboratory results from patent US5733879A, “Peptides and proteins, process for their preparation and their use as cholesterol acceptors” (N.V. Innogenetics, S.A., priority 1992, dated 1998).
Where “and” joins values, the source holds several entries; their conditions need not be identical. Equal values may be shown once. Where no end group is shown, it is not given here.

How the values were obtained:
[1] = Percentage of alpha-helix structure by ATR infrared spectroscopy; type: physicochemical; conditions: for percentage of alpha-helix structure, peptide, IR: free peptide; for percentage of alpha-helix structure, DMPC/peptide, IR: phospholipid-peptide (DMPC) complex
From the text: Table 1: corresponds to the percentage of alpha-helix structure in the free peptide and in the phospholipid-peptide (DMPC) complexes as determined by infrared spectroscopy (IR) and circular dichroism (CD).
(§1) Attenuated Total Reflection (ATR) infrared spectroscopy was used for the determination of the relative orientation of the apolipoprotein alpha-helical segments and of the phospholipid acyl chains as previously described for apo AI and apo AI-phospholipid complexes and for LDL (Vanloo et at., 1991). For these measurements, a 70 μL solution of 20 μg isolated complex in a 0.005M Tris-HCl buffer pH 8.4, was spread on a ATR Germanium crystal plate. Deuteration of the sample was performed by flushing N2, saturated with D2 O, in a sealed universal Perkin-Elmer sample holder, at room temperature for 3 hours, in order to avoid overlapping of the absorption bands for random and alpha-helical structures.
(§2) Spectra were recorded on a Perkin Elmer 1720X infrared spectrophotometer, using polarized incident light with a perpendicular (90°) and parallel (0°) orientation. A dichroic spectrum was obtained by substracting the spectrum recorded with polarized light at 0° from that at 90°. A positive deviation on the dichroic spectrum indicates a dipole preferentially oriented close to a normal to the plane, while a larger absorbance at 0° is indicative of a dipole oriented close to the Ge crystal plane. The angle between a normal to the Ge crystal and the dipole is obtained from the calculation of the dichroic ratio Ratr =A(90°)/A(0°), representing the ratio of the absorbances on the spectra recorded with polarized light at 90° and 0° . For each experiment, up to 15 scans were stored and averaged.

[2] = Electron microscopy size measurement of the lipid-peptide complexes; type: physicochemical; conditions: complex with DPPC, from electromicrographs
Description: Phospholipid-peptide complexes, at a protein concentration of 150 μg/ml, were negatively stained with a 20 g/l solution of potassium phosphotungstate (pH 7.4). 7 μl of the samples were applied to Formvar carbon-coated grids and examined in a Zeiss EM 10C transmission electron microscope operating at 60 kV. Particle size was determined by measuring 120 discrete particles for each sample. The mean diameter and the size distribution of the complexes were calculated.

[3] = GdmCl denaturation followed by Trp maximal emission wavelength; type: physicochemical; conditions: phospholipid (DMPC) complex
Description: The stability of the DMPC-peptide complexes, was compared by following the maximal emission wavelength of the Trp residues after exposure to increasing quantities of GdmCl. For these experiments aliquots of a 8M GdmCl solution were added to the complex in the Tris-HCl buffer described above (see FIG. 3).

[4] = as above; type: physicochemical; conditions: free peptide or protein
J774 murine macrophages = experiment: Cellular cholesterol efflux from lipid-loaded macrophages; type: cell-based; conditions: for Vmax (cholesterol efflux): phospholipid-peptide complexes, cholesterol-loaded J774 cells, 24 h; for efflux of free cholesterol into the medium: protein concentration of the complex in the medium 100 μg/ml, 24 h incubation
Description: J774 murine macrophages are grown in DMEM (Gibco) with addition of 10% fetal calf serum (FCS), in a 5% CO2 atmosphere. Cells are seeded in 35 mm dishes at a density of 2×10^6 /dish, grown for 18 h in 2ml DMEM-10% FCS and used as confluent monolayers. After 18 h, the cells are washed twice with DMEM and incubated with acetylated LDL at a concentration of 100 μg apo B/ml for 24 h in a medium consisting of DMEM and 10% lipoprotein deficient serum (LPDS). LPDS is prepared from fetal cell serum (Gibco) by eliminating all lipoproteins by ultracentrifugation. After loading with cholesteryl esters, cell monolayers are washed with DMEM.
The cholesteryl ester-laden cells are incubated in 2 ml DMEM supplemented with 1 g/l bovine serum albumin and containing the Sandoz 58-035 compound at a concentration of 1 μg/ml medium as inhibitor of the acyl-CoA:cholesterol acyl transferase enzyme (ACAT) in order to prevent the re-esterification of the cellular cholesterol (Brown et at., 1980). The cholesterol acceptors, i.e. the discoidal peptide-lecithin complexes were added to the medium at concentrations varying between 10 and 200 μg peptide/ml and cells were incubated for 24 h.
After incubation, cells are washed once with phosphate buffer pH 7.4, 0.15N NaGl (PBS) containing 2 g/l BSA and twice with PBS alone. Lipid extracts are prepared by addition to the cell pellet of 5 ml hexane/isopropylalcohol (3:2) (Phillips et at., 1987). Fifty μl of a cholesteryl heptadecanoate solution in chloroform at a concentration of 500 μg/ml are added as internal standard for the HPLC quantitation of cholesteryl esters. After vortex-mixing for 3 min and centrifugation at 3000 rpm for 15 rain, the organic phase supernatant is dried, the precipitate is dissolved in 1 ml chloroform and washed three times. The dry residue is finally dissolved in 50 μl of a mixture of chloroform:acetonitrile:isopropylalcohol (1:1:1), of which 20 μl are injected into the HPLC system.
The same extraction procedure is applied to 1 ml of the medium. For quantification of the unesterified cholesterol fraction, beta-sitosterol is used as internal standard according to methods known in the art.
After delipidation, cellular proteins were dissolved in 0.1M NaOH and the proteins were assayed either by the method of Lowry (Lowry et al., 1951) or with the bicinchoninic acid (BCA) reagent using a kit for protein assay manufactured by Pierce (Pierce Europe, oud-Beijerland, Holland). In both cases bovine serum albumin was used as a standard.

[5] = Orientation of helices and acyl chains by polarized ATR infrared spectroscopy; type: physicochemical; conditions: peptide-DMPC complexes
Description: as §1, §2
In order to determine the orientation of the alpha-helices with respect to the DMPC bilayer, ATR infrared spectra of DMPC and of the isolated peptide-DMPC complexes were recorded at two orthogonal linear polarizations of the incident light. […] This value is close to that measured for the apo AI-DMPC complex (Vanloo et al.,1991), and higher than that for pure DMPC. For the M1, M2, M3 and M4 peptide-DMPC complexes, the corresponding angles between the peptide and an axis perpendicular to the Ge plane are respectively 25°, 25°, 34° and 31°.

[6] = Trp fluorescence emission of peptides and complexes; type: physicochemical; conditions: for Trp maximal emission wavelength, free: free peptide or protein; for Trp maximal emission wavelength upon phospholipid binding: in the phospholipid complex
Description: The measurement of the Trp fluorescence emission in the peptides and in the complexes was used to monitor complex formation. The fluorescence measurements were performed on an Aminco SPF-500 spectrofluorimeter equipped with a special adapter (Aminco-J4-9501) for the fluorescence polarisation measurements. The fluorescence polarization of the lipid-peptide complexes labelled with diphenyl hexatriene (DPH) (molar ratio of 500:1 lipid:DPH) was measured as a function of the temperature to detect changes in the fluidity of the phospholipid acyl chains due to lipid-peptide association. The excitation wavelength was set at 365 nm and emission was detected at 427 nm. Temperature scans between 15° and 40° C. were performed with a circulating water bath (Julabo) at a rate of 0.6° C./min.

| Substance | percentage of alpha-helix structure, peptide, IR [1] | percentage of alpha-helix structure, DMPC/peptide, IR [1] | Diameter MEAN ± SD [2] | midpoint of the GdmCl denaturation, phospholipid complex [3] | midpoint of the GdmCl denaturation transition, free peptide [4] | Vmax (cholesterol efflux) (J774 murine macrophages) | angle between the peptide and an axis perpendicular to the Ge plane [5] | Trp maximal emission wavelength, free [6] | Trp maximal emission wavelength upon phospholipid binding [6] | efflux of free cholesterol into the medium (J774 murine macrophages) |
| --- | --- | --- | --- | --- | --- | --- | --- | --- | --- | --- |
| EWLKAEYEKVEEKLKELF [M3] | 43% | 61% | 175 ± 55 Å | immediately | around 0.1 M | 77 μg cholesterol released from t | 34 ° | – | – | – |
| EWLKAFYKKVLEKLKELF [M1] | 29% | 50% | 209 ± 33 Å | 4 M | around 0.3 M | 111 μg cholesterol released from t | 25 ° | 341 nm | 335 nm | – |
| EWLEAFYKKVLEKLKELF [M4] | 35% | 58% | 150 ± 25 Å | 2.5 M | around 0.1 M | 50 μg cholesterol released from t | 31 ° | – | – | 20 µg |
| EWLKAEYEKVLEKLKELF [M2] | 36% | 50% | 173 ± 45 Å | 3 M | immediately | 48 μg cholesterol released from t | 25 ° | 353 nm | 342 nm | – |
| apo AI: native plasma apo AI purified from human plasma; major apoprotein constituent of HDL | 39% | 49% | 128 ± 22 Å | 2.5 M | 1.3 M | 52 μg cholesterol released from t | – | 333 nm and 338 nm | 329 nm | ~8 µg |
